How the values were obtained:
[1] = target: T1, Opti-HEK-VKOR-IIa (FX-IIa with the factor X signal peptide and factor X propeptide variant, co-expressed with human VKOR in HEK, aptamer-purified)
T1 chain 1: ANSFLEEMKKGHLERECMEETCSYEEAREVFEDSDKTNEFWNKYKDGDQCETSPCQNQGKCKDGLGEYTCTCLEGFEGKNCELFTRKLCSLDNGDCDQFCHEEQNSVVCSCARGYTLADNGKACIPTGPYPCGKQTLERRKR
T1 chain 2: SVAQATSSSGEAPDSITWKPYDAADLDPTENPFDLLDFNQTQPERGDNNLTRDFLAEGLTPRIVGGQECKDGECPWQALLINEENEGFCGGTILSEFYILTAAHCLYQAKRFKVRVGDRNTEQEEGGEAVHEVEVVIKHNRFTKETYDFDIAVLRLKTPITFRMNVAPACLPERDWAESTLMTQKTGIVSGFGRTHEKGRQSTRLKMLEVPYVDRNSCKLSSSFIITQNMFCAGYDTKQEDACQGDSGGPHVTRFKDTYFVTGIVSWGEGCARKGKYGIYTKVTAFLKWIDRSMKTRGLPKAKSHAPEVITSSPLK

[2] = target: T2, FVIIv1-psFX-IIa-F2 (FX-IIa expressed with the factor X signal peptide and the FVII isoform v1 propeptide, from HEK, aptamer-purified)
T2 chain 1: T1 chain 1
T2 chain 2: T1 chain 2

B1: factor VIIa/tissue factor (TF) complex (protein)
chain 1: ANAFLEELRPGSLERECKEEQCSFEEAREIFKDAERTKLFWISYSDGDQCASSPCQNGGSCKDQLQSYICFCLPAFEGRNCETHKDDQLICVNENGGCEQYCSDHTGTKRSCRCHEGYSLLADGVSCTPTVEYPCGKIPILEKRNASKPQGRIVGGKVCPKGECPWQVLLLVNGAQLCGGTLINTIWVVSAAHCFDKIKNWRNLIAVLGEHDLSEHDGDEQSRRVAQVIIPSTYVPGTTNHDIALLRLHQPVVLTDHVVPLCLPERTFSERTLAFVRFSLVSGWGQLLDRGATALELMVLNVPRLMTQDCLQQSRKVGDSPNITEYMFCAGYSDGSKDSCKGDSGGPHATHYRGTWYLTGIVSWGQGCATVGHFGVYTRVSQYIEWLQKLMRSEPRPGVLLRAPFP
chain 2: SGTTNTVAAYNLTWKSTNFKTILEWEPKPVNQVYTVQISTKSGDWKSKCFYTTDTECDLTDEIVKDVKQTYLARVFSYPAGNVESTGSAGEPLYENSPEFTPYLETNLGQPTIQSFEQVGTKVNVTVEDERTLVRRNNTFLSLRDVFGKDLIYTLYYWKSSSSGKKTAKTNTNEFLIDVDKGENYCFSVQAVIPSRTVNRKSTDSPVECMGQEKGEFREIFYIIGAVVFVVIILVIILAISLHKCRKAGVGQSWKENSPLNVS
FXa generated after incubation with FVIIa/TF (rate of hydrolysis of PNAPEP substrate), percent of the plasma FXa control [1]: 27% activated relative to the FXa for Opti-HEK-VKOR-IIa
FXa generated after incubation with FVIIa/TF (rate of hydrolysis of PNAPEP substrate), percent of the plasma FXa control [2]: 36% activated relative to the FXa for FVIIv1-psFX-IIa-F2
activity after FVIIa/TF activation, percent of that of the molecule containing the wild-type propeptide (Opti-HEK-VKOR-IIa) [2]: an activity of 142% of that of the molecule containing the wild-type propeptide
